# Data taken from paper PMC5120866 (Cancer research, 2016).
# Biological target: Integrin β3 (human (endogenous in ovarian cancer …, UniProt P05106 27-788))
# Experiment: co-IP
# Sequence of Integrin β3 (human (P05106 27-788): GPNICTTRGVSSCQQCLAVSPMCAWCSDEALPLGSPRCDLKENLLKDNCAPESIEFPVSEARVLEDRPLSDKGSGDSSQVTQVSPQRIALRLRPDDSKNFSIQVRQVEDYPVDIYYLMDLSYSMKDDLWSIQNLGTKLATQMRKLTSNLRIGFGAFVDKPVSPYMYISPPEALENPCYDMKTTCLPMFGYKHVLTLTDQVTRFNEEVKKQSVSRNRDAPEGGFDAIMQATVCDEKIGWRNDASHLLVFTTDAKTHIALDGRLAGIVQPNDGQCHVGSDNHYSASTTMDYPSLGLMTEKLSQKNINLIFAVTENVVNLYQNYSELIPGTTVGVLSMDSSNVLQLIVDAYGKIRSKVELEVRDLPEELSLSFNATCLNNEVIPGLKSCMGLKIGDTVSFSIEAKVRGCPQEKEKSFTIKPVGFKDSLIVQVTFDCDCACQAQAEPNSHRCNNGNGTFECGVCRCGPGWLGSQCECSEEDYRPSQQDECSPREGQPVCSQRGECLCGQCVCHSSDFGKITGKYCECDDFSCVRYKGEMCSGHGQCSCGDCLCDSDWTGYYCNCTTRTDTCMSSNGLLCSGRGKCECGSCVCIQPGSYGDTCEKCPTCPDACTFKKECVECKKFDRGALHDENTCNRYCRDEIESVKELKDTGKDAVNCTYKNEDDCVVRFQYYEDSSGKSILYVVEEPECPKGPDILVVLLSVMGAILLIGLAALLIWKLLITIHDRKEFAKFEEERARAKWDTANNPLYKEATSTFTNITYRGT
binder,measurement,value
"EGFL6 (wild-type, FLAG-EGFL6) (ligand, human, UniProt Q8IUX8-1 22-553, looked up) NAASARHHGLLASARQPGVCHYGTKLACCYGWRRNSKGVCEATCEPGCKFGECVGPNKCRCFPGYTGKTCSQDVNECGMKPRPCQHRCVNTHGSYKCFCLSGHMLMPDATCVNSRTCAMINCQYSCEDTEEGPQCLCPSSGLRLAPNGRDCLDIDECASGKVICPYNRRCVNTFGSYYCKCHIGFELQYISGRYDCIDINECTMDSHTCSHHANCFNTQGSFKCKCKQGYKGNGLRCSAIPENSVKEVLRAPGTIKDRIKKLLAHKNSMKKKAKIKNVTPEPTRTPTPKVNLQPFNYEEIVSRGGNSHGGKKGNEEKMKEGLEDEKREEKALKNDIEERSLRGDVFFPKVNEAGEFGLILVQRKALTSKLEHKDLNISVDCSFNHGICDWKQDREDDFDWNPADRDNAIGFYMAVPALAGHKKDIGRLKLLLPDLQPQSNFCLLFDYRLAGDKVGKLRVFVKNSNNALAWEKTTSEDEKWKTGKIQLYQGTDATKSIIFEAERGKGKTGEIAVDGVLLVSGLCPDSLLSVDD",fold co-immunoprecipitation against EGFL6^RGE,4.6 fold
